For experiment [1], the target named is T1, Chp1 chromodomain (residues 15-75) for crystallization (S. pombe, UniProt Q10103 15-75).
T1 sequence (looked up): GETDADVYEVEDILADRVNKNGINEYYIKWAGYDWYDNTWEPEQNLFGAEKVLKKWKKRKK
The experiment in a line: crystal structure.

A further experiment deals with T2, Swi6 V82E (S. pombe, UniProt P40381 1-328, V82E).
T2 sequence (looked up): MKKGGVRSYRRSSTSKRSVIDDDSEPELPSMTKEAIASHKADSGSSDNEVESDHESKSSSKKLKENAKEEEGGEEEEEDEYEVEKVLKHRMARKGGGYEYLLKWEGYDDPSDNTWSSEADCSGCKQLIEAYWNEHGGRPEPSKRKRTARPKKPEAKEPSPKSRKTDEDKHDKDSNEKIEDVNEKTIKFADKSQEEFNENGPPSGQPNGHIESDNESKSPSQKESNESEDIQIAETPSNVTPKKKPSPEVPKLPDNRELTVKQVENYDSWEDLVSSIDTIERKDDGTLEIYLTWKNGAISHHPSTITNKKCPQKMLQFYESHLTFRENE
Nature of the experiment: fluorescence polarisation. A general note: Fluorescence polarisation rises when a labelled molecule tumbles more slowly, as on binding a larger partner.

The next experiment has as its target T3, Swi6 E80V V82E (S. pombe, UniProt P40381 1-328, E80V | V82E).
T3 sequence (looked up): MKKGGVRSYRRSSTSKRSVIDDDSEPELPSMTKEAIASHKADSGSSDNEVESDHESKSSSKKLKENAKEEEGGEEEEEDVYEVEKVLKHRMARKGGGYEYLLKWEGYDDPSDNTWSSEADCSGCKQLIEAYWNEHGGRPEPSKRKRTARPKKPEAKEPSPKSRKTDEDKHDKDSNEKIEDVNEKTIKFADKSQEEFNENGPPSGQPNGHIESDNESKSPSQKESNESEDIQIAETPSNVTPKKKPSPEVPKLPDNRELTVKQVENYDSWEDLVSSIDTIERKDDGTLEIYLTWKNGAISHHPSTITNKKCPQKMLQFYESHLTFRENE
Nature of the experiment: fluorescence polarisation.

Experiment [2] deals with Clr4 chromodomain (residues 1-70) (S. pombe, UniProt O60016 1-70). Nature of the experiment: fluorescence polarisation.
Chain of Clr4 chromodomain (residues 1-70) (O60016 1-70): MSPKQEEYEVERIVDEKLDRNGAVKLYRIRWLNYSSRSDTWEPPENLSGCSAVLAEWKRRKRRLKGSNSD
The target in experiment [3] is T4, Swi6, full length, wild type (S. pombe, UniProt P40381 1-328).
T4 sequence (looked up): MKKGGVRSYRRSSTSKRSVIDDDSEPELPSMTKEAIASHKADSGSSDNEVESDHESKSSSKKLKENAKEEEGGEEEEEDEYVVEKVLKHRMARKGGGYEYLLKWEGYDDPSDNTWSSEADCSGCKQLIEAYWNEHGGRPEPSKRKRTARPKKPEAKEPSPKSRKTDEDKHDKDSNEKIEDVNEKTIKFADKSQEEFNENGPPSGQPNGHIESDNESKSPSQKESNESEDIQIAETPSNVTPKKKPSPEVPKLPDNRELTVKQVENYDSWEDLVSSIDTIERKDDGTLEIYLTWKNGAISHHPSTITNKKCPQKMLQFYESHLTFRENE
Nature of the experiment: fluorescence polarisation.

Experiment [4] addresses T5, H3K9me3 peptide (isothermal titration calorimetry) (trimethyl-lysine at 9).
T5 chain: ARTKQTARKSTGGKAY
The experiment in a line: ITC. Background: Isothermal titration calorimetry measures the heat released or taken up as one component is titrated into another.

The target in experiment [5] is T6, Chp1 chromodomain E23V,V24M (S. pombe, UniProt Q10103 9-76, E23V | V24M).
T6 sequence (looked up): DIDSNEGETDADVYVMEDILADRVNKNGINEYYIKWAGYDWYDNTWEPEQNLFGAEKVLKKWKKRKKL
The experiment in a line: fluorescence polarisation.

Experimental findings from article PMC2705653 (Molecular cell, 2009) are described below.

Some results are limits rather than exact numbers.

In general, Kd refers to the concentration at which binding is half-saturated. Read a high Kd as a looser complex.

B1: H3K9me3 peptide (crystallization) (peptide)
peptide: ARTKQTARKSTGGKAY
modifications: trimethyl-lysine at 9
With B1, the binding result in experiment [1] is “binds”.

B2: fluorescein labeled H3K9me2 peptide (peptide)
chain: ARTKQTARKSTGGKAY
modifications: dimethyl-lysine at 9; fluorescein (position not given)
With B2, the Kd stood at 2190 ± 130 nM with Swi6 V82E, 1070 ± 30 nM with Swi6 E80V V82E, 2860 ± 270 nM in experiment [2] and 10300 ± 1690 nM in experiment [3].

B3: Chp1 chromodomain, wild type (for binding studies) (domain or fragment, S. pombe, UniProt Q10103 9-76, looked up)
chain: DIDSNEGETDADVYEVEDILADRVNKNGINEYYIKWAGYDWYDNTWEPEQNLFGAEKVLKKWKKRKKL
As for B3, the “fold higher affinity than Swi6” value in experiment [4] was at least 5 fold.

B4: H3K9me3 peptide (fluorescence polarization) (peptide)
chain: ARTKQTARKSTGGKAY
modifications: trimethyl-lysine at 9
On to B4, for which the Kd was found to be 1040 ± 100 nM in the experiment with Swi6 V82E; 610 ± 120 nM with Swi6 E80V V82E; 600 ± 80 nM in experiment [2]; 14700 nM in experiment [5]; 3340 ± 550 nM in experiment [3].
